Measurements as given in PMC12182893.

Target: Pseudotyped lentivirus displaying Omicron BA.5 S protein (PV) (SARS-CoV-2 Omicron BA.5) (UniProt P0DTC2)
Assay: dot blot (filter binding)

Row | Sequence | Kd
1 | TTACGTCAAGGTGTCACTCCTGTGGGTGGAATGGGGAAGGGAGTGTTTTTTTTTGTGAGATGTGTGGTGTGGAATGGGGAAGCATCTCTTTGGCGTG [DRDA8] | 0.0028 pM
2 | TTACGTCAAGGTGTCACTCCTGTGGGTGGAATGGGGAAGGGAGTGTTTTTTTTTTCGGAGATGTGTGTGTGAAACAGTGGGAAGCATCTCTTTGGCGTG [DRDA10] | 0.0043 pM
